Measurements taken from the supplement of paper PMC9170038.

What follows are sequences tested on MS2 coat protein (assay: apparent KD of MS2 coat protein; higher = weaker reporter binding). Settings: Eterna round: R107; input ligand: theophylline 2 mM.
How it was run: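 Illumina sequencing clusters served as templates for on-chip transcription of the designed RNA switches. SNAP-549-labelled MS2 coat protein was then titrated in twofold steps from 0.7 or 1.5 nM to 3 µM, allowing 0.8–1.5 h per step at first and 10–20 min per step later. The buffer held 100 mM Tris-HCl pH 7.5, 80 mM KCl and 4 mM MgCl2, without or with constant ligand. Apparent KD is the median per design of normalised cluster binding-curve fits.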

| Sequence | apparent KD of MS2 coat protein |
| --- | --- |
| UGUGACAUGAGGAUCACCCAUGUAAGGGAAGGAGCGCCGAAUAAGGCAGGUAGGUCGCCCAAGAUAGAAGAAUAAUAAGAUUGUG [Arginine A Same State; Euphoria Solution] | 27.9 nM |
| AAGACAUGAGGAUCACCCAUGUCGACAAAACGAGGACCGGUACGGCCGCCACUCGAAAGCAAAUGAGCGCAUGCGGCCUGGGUAU [Exclusion Tryp A GF2] | 12 nM |
| CAAUAUAUAUGAAGGAGCGUCGAAAAUGGGUAAACAUGAGGAUCACCCAUGUAAAGGGAACGACAGGUAGGUCGCAUAUAUAUUG [AstromonsSSArgB#8] | 218 nM |
| AUGCAUAGCGGAAGGAGCGCAAUAGAAUGACAUGAGGAUCACCCAUGUGUGUGAUGUGGAUUGCAGGUAGGUCGCCGAGUGGUAU [Exclusion - Arginine B (Freestyle 3)] | 42.7 nM |
| AACAUGAGGAUCACCCAUGUCGGGCCGGUGCGAGGACCGGUACGGCCGCCACUCGAGACAUGAGGAUCACCCAUGUAGGGCGAGA [Exclusion Tryptophan A GF22] | 80.7 nM |
| AACAGGGUCUGAAGGAGCGCGAUCACAUGAGGAUCACCCAUGUGAAAUGGUAGAUGAUACUCGCAGGUAGGUCGCAGUACUUGAC [Same State Arginine B GF 15] | 82.4 nM |
| UUGUUGUUUGGAAGGAGCGUGUAAGAUUAAGAACAUGAGGAUCACCCAUGUUUUAAGGGAGCACAGGUAGGUCGCCGGGUGGUGG [11.S] | 15.9 nM |
| GUCCUCGUGUCCGGUUUAGCGCAAAGCGCACGAGGACCGGUACGGCCGCCACUCGAAACAUGAGGAUCACCCAUGUGAAGAAUAA [Design 1] | 15.8 nM |
| UACCGAUGAAGAAGGAGCGUGCGUGGUUCACAUGAGGAUCACCCAUGUGCUUUAUACUAGGCACAGGUAGGUCGCUUCAUCGGUA [SSAB NP+V+V2 #22] | 27.8 nM |

Same assay, conditions: Eterna round: R107; input ligand: tryptophan 2.4 mM

| Sequence | apparent KD of MS2 coat protein |
| --- | --- |
| UUCAGCUAGUCGGCCGCCACUACAUGAGCAUCAGCCAUGUUCCUAAAACACUGCUUCGGCAGUGGUAGGACCGGGACUAGCUGAG | 25.9 nM |
| ACAUCCAGAUUAAUCGUGGGCAUACUCGAUACCAGUAUUUUAACCUACCCUUGGCAGCGACAUGAGGAUCACCCAUGUGAGAUGA [XTheo A #10] | 23.8 nM |
| CAUAUAUAUUGAAGGAGCGACAUGAGGAUCACCCAUGUCUACCACGUCGAAAGACGCUCAUGUCAGGUAGGUCGCAAUAUAUAUG [Astros-Eli-mod5] | 106 nM |
| GUCCACAUGAGGAUCACCCAUGUAAGUGGGCGAGGACCGGUACGGCCGCCACUCGACAUGUUGACGAAAAGUCAGCAUGAGGACA [#SwitchBubble 3 #GuTurnoff #Tail] | 101 nM |
| UGUAUGGACUGAAGGAGCGCCUCAAAAUAACUUGAGGAUCACCCAGGUAAGGCGAAAGCCGGGCAGGUAGGUCGCAGUCCAUACU [ArgBX 3] | 49.9 nM |
| AUCAGUAGAACUGAUACCAGUCAAAGGCUUUGACCUCAUAACAUGAGGAUCACCCAUGUUGACCCUUGGCAGCAGUAGGCAAGGG [Theo B Ex t4] | 25.4 nM |
| CAUAAUUUAUCCUAUAAAACUAUUAGUGAUACCAGCACCUCAUGAUGCCCUUGGCAGCACUUACAUGAGGAUCACCCAUGUUUUA [JR_NU_SSTheophyA_Sub029] | 158 nM |
| AAUAACAUGAGGAUCACCCAUGUAAAAGAUACCAGAGUGAUGAUCCUCCCUUGGCAGCUUAAACGCUAUUGAUUACAAUAGCGAA [Mat - Same State Theophlline A - Mod of Eli - D2] | 28.6 nM |
| UUAUUUAACGGAAGGAGCGCGGAAAUUAAAGUGGGUAAACAUGAGGAUCACCCAUGUAAACCGCAGGUAGGUCGCCGAUAUUUAU [#22 Exclusion - Arginine B] | 71.9 nM |
| ACACAUGAUAGAAGGAGCGCAAUGAACACACAUGAGGAUCACCCAUGUUUUUUUUGUGUUUUGCAGGUAGGUCGCUAACAUGAGG [Same State Arginine B 4] | 8.32 nM |
| UGAUACACGGGAAGGAGCGACAGGGAUAAGUCCGCACGGGCCGCACAUGAGGAUCACCCAUGUCAGGUAGGUCGCCCGUGGCGUG [Erxemarima] | 12.9 nM |
| AAUAUAAGUGUAAUUAUAUGUAUCUCUGAUACCAGACUCUCAUGUGUCCCUUGGCAGCAGUUACAUGAGGAUCACCCAUGUAUUA [JR_Nu_SSTheophyA_Sub024] | 84.5 nM |
| UUGGUACAUGAGGAUCACCCAUGUACUGAAGGAGCGGGACGAAUCUCAGGUAGGUCGCAGACAUGAGGAUCACCCAUGUAUUGGU [Exclusion Arginine A GF 16] | 16.5 nM |
| UCGUGUAUAUCGGAUACCAGUGAAAUCGAUACAUGAGGAUCACCCAUGUGAGUUGAUGUACACCCUUGGCAGCUGUAUAUAUCUA [snbullin] | 15.3 nM |
| UUAUUUAUAAUGGAUACCAGUCGUAUGGCCCGGAAUCCUGACAUGAGGAUCACCCAUGUCGACCCUUGGCAGCUGUUAUGGGUUU [XTheo B #22] | 14.9 nM |
| AACAUGAGGAUCACCCAUGUCGGGCCGGAGCGAGGACCGGUACGGCCGCCACUCGAGACAUGAGGAUCACCCAUGUAGGGCGAAA [Exclusion Tryptophan A GF21] | 186 nM |
| UGUGACAUGAGGAUCACCCAUGUAAGGGAAGGAGCGCCGAAUAAGGCAGGUAGGUCGCCCAAGAUAGAAGAAUAAUAAGAUUGUG [Arginine A Same State; Euphoria Solution] | 28.3 nM |
| AAGACAUGAGGAUCACCCAUGUCGACAAAACGAGGACCGGUACGGCCGCCACUCGAAAGCAAAUGAGCGCAUGCGGCCUGGGUAU [Exclusion Tryp A GF2] | 12.7 nM |
| UAACAUGAGGAUCACCCAUGUAUAGUCGAUACCAGCUCUGUCUAGAGCCCUUGGCAGCGACACUGGUAUCCAUGGGUGUGGAUAC [(Ms2)-(Theo)-(T)'-(M)'-(M)''] | 103 nM |
| CAAUAUAUAUGAAGGAGCGUCGAAAAUGGGUAAACAUGAGGAUCACCCAUGUAAAGGGAACGACAGGUAGGUCGCAUAUAUAUUG [AstromonsSSArgB#8] | 192 nM |
| AUGCAUAGCGGAAGGAGCGCAAUAGAAUGACAUGAGGAUCACCCAUGUGUGUGAUGUGGAUUGCAGGUAGGUCGCCGAGUGGUAU [Exclusion - Arginine B (Freestyle 3)] | 42.8 nM |
| GAGCUGAUGUAGAAAUUUUAUUUCUGAGAUACCAGUACAGAAAUGUACCCUUGGCAGCUCAGUUUUACAUGAGGAUCACCCAUGU [Ex Theophylline A 15] | 13.1 nM |
| AACAUGAGGAUCACCCAUGUCGGGCCGGUGCGAGGACCGGUACGGCCGCCACUCGAGACAUGAGGAUCACCCAUGUAGGGCGAGA [Exclusion Tryptophan A GF22] | 115 nM |
| AACAGGGUCUGAAGGAGCGCGAUCACAUGAGGAUCACCCAUGUGAAAUGGUAGAUGAUACUCGCAGGUAGGUCGCAGUACUUGAC [Same State Arginine B GF 15] | 28.4 nM |
| UUGUUGUUUGGAAGGAGCGUGUAAGAUUAAGAACAUGAGGAUCACCCAUGUUUUAAGGGAGCACAGGUAGGUCGCCGGGUGGUGG [11.S] | 21.5 nM |
| GAAGAGAGGAUACCGUUUGUAUACAACGAUACCAGUGGUAUGUAUCACCCUUGGCAGCGUGAGACAUGAGGAUCACCCAUGUGGC [theeternabot_exclusion_MS2_Theo_A_46] | 18.4 nM |
| GUCCUCGUGUCCGGUUUAGCGCAAAGCGCACGAGGACCGGUACGGCCGCCACUCGAAACAUGAGGAUCACCCAUGUGAAGAAUAA [Design 1] | 17.8 nM |
| UACCGAUGAAGAAGGAGCGUGCGUGGUUCACAUGAGGAUCACCCAUGUGCUUUAUACUAGGCACAGGUAGGUCGCUUCAUCGGUA [SSAB NP+V+V2 #22] | 23.3 nM |
